Source: PMC4717258, “Sulfoxides, Analogues of L-Methionine and L-Cysteine As Pro-Drugs against Gram-Positive and Gram-Negative Bacteria” (Acta Naturae, 2015)

Experiments:
[1] = molecular target: T1, C. sporogenes MGL (Clostridium sporogenes, UniProt A0A7X5SZI3); assay: absorption spectrum of holoenzyme, lognormal deconvolution of internal aldimine bands; assay type: binding; conditions: covalent internal aldimine; pH 8.0, 25 °C, working buffer without PLP
T1 construct: gene megL; subunit 43 kDa; PLP enzyme
T1 sequence (A0A7X5SZI3 1-400): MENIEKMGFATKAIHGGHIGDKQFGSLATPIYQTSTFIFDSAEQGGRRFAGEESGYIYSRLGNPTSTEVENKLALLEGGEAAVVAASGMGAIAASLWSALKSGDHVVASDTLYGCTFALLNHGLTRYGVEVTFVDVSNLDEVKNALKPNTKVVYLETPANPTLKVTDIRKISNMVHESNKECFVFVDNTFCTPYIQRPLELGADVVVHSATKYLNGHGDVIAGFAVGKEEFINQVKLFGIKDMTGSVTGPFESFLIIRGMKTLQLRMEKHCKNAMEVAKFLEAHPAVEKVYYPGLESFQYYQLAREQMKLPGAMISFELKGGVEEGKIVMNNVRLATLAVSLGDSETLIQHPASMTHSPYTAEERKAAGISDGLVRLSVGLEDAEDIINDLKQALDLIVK

[2] = molecular target: T1, C. sporogenes MGL; assay: inhibition of L-Met γ-elimination, NADH-coupled with D-2-hydroxyisocaproate dehydrogenase, Dixon plot; assay type: biochemical
Excerpt: inhibition of L-Met γ-elimination, NADH-coupled with D-2-hydroxyisocaproate dehydrogenase, Dixon plot on C. sporogenes MGL

[3] = molecular target: T1, C. sporogenes MGL; assay: γ-elimination steady-state kinetics, NADH-coupled with D-2-hydroxyisocaproate dehydrogenase, […] nm; assay type: biochemical; conditions: pH 8.0, 100 mM potassium phosphate, 0.1 mM PLP, 1 mM DTT, 1 mM EDTA, 30 °C
[4] = substrate: C=CC[S+]([O-])C[C@H](N)C(=O)O; assay: purified protein; assay type: biochemical, Clostridium sporogenes; conditions: pH 8.0, 100 mM potassium phosphate, 0.1 mM PLP, 1 mM DTT, 1 mM EDTA, 30 °C
[5] = substrate: CC(=O)OCC[C@H](N)C(=O)O; assay: purified protein; assay type: biochemical, Clostridium sporogenes; conditions: pH 8.0, 100 mM potassium phosphate, 0.1 mM PLP, 1 mM DTT, 1 mM EDTA, 30 °C
[6] = substrate: CC(=O)OC[C@H](N)C(=O)O; assay: purified protein; assay type: biochemical, Clostridium sporogenes; conditions: pH 8.0, 100 mM potassium phosphate, 0.1 mM PLP, 1 mM DTT, 1 mM EDTA, 30 °C
[7] = substrate: CCSC[C@H](N)C(=O)O; assay: purified protein; assay type: biochemical, Clostridium sporogenes; conditions: pH 8.0, 100 mM potassium phosphate, 0.1 mM PLP, 1 mM DTT, 1 mM EDTA, 30 °C
[8] = substrate: CC[S+]([O-])CC[C@H](N)C(=O)O; assay: purified protein; assay type: biochemical, Clostridium sporogenes; conditions: pH 8.0, 100 mM potassium phosphate, 0.1 mM PLP, 1 mM DTT, 1 mM EDTA, 30 °C
[9] = substrate: CC[S+]([O-])C[C@H](N)C(=O)O; assay: purified protein; assay type: biochemical, Clostridium sporogenes; conditions: pH 8.0, 100 mM potassium phosphate, 0.1 mM PLP, 1 mM DTT, 1 mM EDTA, 30 °C
[10] = substrate: CSCC[C@H](N)C(=O)O; assay: purified protein; assay type: biochemical, Clostridium sporogenes; conditions: pH 8.0, 100 mM potassium phosphate, 0.1 mM PLP, 1 mM DTT, 1 mM EDTA, 30 °C
[11] = substrate: C[S+]([O-])CC[C@H](N)C(=O)O; assay: purified protein; assay type: biochemical, Clostridium sporogenes; conditions: pH 8.0, 100 mM potassium phosphate, 0.1 mM PLP, 1 mM DTT, 1 mM EDTA, 30 °C

Cc1ncc(COP(=O)(O)O)c(C=O)c1O [PLP]
absorption spectrum of holoenzyme, lognormal deconvolution of internal aldimine [1]: The ionic form of the internal aldimine and tautomeric equilibrium are almost the same

CCC[C@H](N)C(=O)O [L-Nva]
Ki [2]: 1.9 mM

CCSCC[C@H](N)C(=O)O [S-Et-L-Hcy]
Km [3]: 240 µM

CC[C@H](N)C(=O)O [L-Abu]
Ki [2]: 2 mM

C[C@H](N)C(=O)O [L-Ala]
Ki [2]: 1.5 mM

CCCC[C@H](N)C(=O)O [L-Nle]
Ki [2]: 0.37 mM

B1: C. sporogenes MGL (Clostridium sporogenes) (protein)
chain: T1 sequence (A0A7X5SZI3 1-400)
notes: subunit 43 kDa; PLP enzyme
Km [4]: 1430 µM | kcat [4]: 11.4 s⁻¹ | kcat/Km [4]: 7990 M⁻¹ s⁻¹ | Km [5]: 3180 µM | kcat [5]: 37.3 s⁻¹ | kcat/Km [5]: 11700 M⁻¹ s⁻¹ | Km [6]: 8010 µM | Km [7]: 430 µM | kcat [7]: 6.53 s⁻¹ | kcat/Km [7]: 15200 M⁻¹ s⁻¹ | Km [8]: 600 µM | kcat [8]: 0.48 s⁻¹ | kcat/Km [8]: 800 M⁻¹ s⁻¹ | Km [9]: 330 µM | kcat [9]: 1.39 s⁻¹ | kcat/Km [9]: 4210 M⁻¹ s⁻¹ | Km [10]: 600 µM | kcat [10]: 21.6 s⁻¹ | kcat/Km [10]: 36000 M⁻¹ s⁻¹ | Km [11]: 11390 µM | kcat [11]: 21.7 s⁻¹ | kcat/Km [11]: 1900 M⁻¹ s⁻¹
